{
  "source": "the nanobody polyreactivity screen of Harvey et al. (2022)",
  "data": [
    {"experiment": "yeast display, Sf9 membrane polyspecificity reagent, FACS + sequencing; frameworks hold sequencing errors", "method_in_brief": "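A nanobody's polyreactivity label depends on the gate it was sorted from. Yeast display cells were stained with 10% biotinylated, detergent-solubilized Sf9 membrane reagent for 1 hour at 4 °C, enriched on streptavidin microbeads and sorted by FACS. The low and high (top ~1%) gates were set on anti-HA fluorescence for expression and streptavidin fluorescence for reagent binding.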", "values": [
      {"sequence": "QVQLVESGGGLVQAGGSLRLSCAASGSISKINAMGWYRQAPWKERELVAAINTGDSTYYADSVKGRFTISRDNAKNTVYLLMNSLKPEDTAVYYCAAECSPTGYDYWGQGTQVTVSS", "polyreactivity (PSR sort gate)": "low polyreactivity"},
      {"sequence": "QVQLVESGGGLVQAGGSLRLSCAASGSISPVYAMGWYRQAPGKERELVAAYADSVKGRFTISRDNAKNTVYLQMNSLIPEDTAVYYCNVVETSQELGWQAFDYWGQGTQVTVSS", "polyreactivity (PSR sort gate)": "low polyreactivity"},
      {"sequence": "QVQLVESGGGLVQAGGSLRLSCAASGSISTPYTMGWYRQAPGKERELVAAISWIGDTTSYADSVKGRFTISRDNAKNTVYLQMHSLKPEETAVYYCNAEHRGYDYWGQGTQVTVSS", "polyreactivity (PSR sort gate)": "low polyreactivity"},
      {"sequence": "QVQLVESGGGLVQAGGSLRLSCAASGSISTVYAMGWYRQAPGKEMELVAAISWSGGSTYYADSVKGRFTISRDNAKNTVYLQMNSLKPEDTAVYYCAAEGYLVGSRWGPRYGDYWGQGTQVTVSS", "polyreactivity (PSR sort gate)": "high polyreactivity"},
      {"sequence": "QVQLVESGGGLVQAGGSLRLSCAASGSISVANAMGWYRQAPGKERELVAAITDSGDDTYYADSVKGRFTISRDTAKNTVYLQMNSLKPEDTAVYYCAVEAWSVPPYDYWGQGTQVTVSS", "polyreactivity (PSR sort gate)": "low polyreactivity"},
      {"sequence": "QVQLVESGGGLVQAGGSLRLSCAASGSISVFYAMGWYRQAPGKEREFVAAISWRGGRTYYEDSVKARFTISRDNANNTVYLQMNSLKPEDTAVYYCAKDIVRGRSSRYDYWGQGTQVTVSS", "polyreactivity (PSR sort gate)": "high polyreactivity"},
      {"sequence": "QVQLVESGGGLVQAGGSLRLSCAASGSISVLNAMGWYRQAPGKERELVAAISRSGTRTYYADSVKGRFTLSRDNAKNTVYLQMNSLKPEDTAVYYCNALHRARLFGHYPYESWGQGTQVTVSS", "polyreactivity (PSR sort gate)": "high polyreactivity"},
      {"sequence": "QVQLVESGGGLVQAGGSLRLSCAASGSISVRNVMGWYRQAPGKERELVATIRRTGGSTSYADSVKGRFTISRDNAKNTVYLQLNSLKPEDTAVYDCADVRYTTYRRYEYWGQGTQVTVSS", "polyreactivity (PSR sort gate)": "low polyreactivity"},
      {"sequence": "QVQLVESGGGLVQAGGSLRLSCAASGSISVVNMGWYRQAPGKERELVASITSSGSTTYADSVKGRFTISRDNAKNTVYLQMNSLKPEDTAGYYCAASSTGYGGSTYYYWGQGTQVTVSS", "polyreactivity (PSR sort gate)": "low polyreactivity"},
      {"sequence": "QVQLVESGGGLVQAGGSLRLSCAASGSISYRYDMGWYRQSPGKERELVATIRSGGSTNYADSVKGRFTISRDNAKNTVYLQMNSLKPEDTAVYYCAARLYARKKLHFSADSDYWGQGSQVTVSS", "polyreactivity (PSR sort gate)": "low polyreactivity"},
      {"sequence": "QVQLVESGGGLVQAGGSLRLSCAASGSIVGIYVMGWYRQAPGKERELVAGISPRGGSTYYADSVKGRFTISRDYAKNTVYLQMNSLKPEDTAVYYCAAVPASFRYPMYYLGQGTQVTVSS", "polyreactivity (PSR sort gate)": "low polyreactivity"},
      {"sequence": "QVQLVESGGGLVQAGGSLRLSCAASGSIVKHYAMGWYRQAPGKERKLVATITRSGRTNYADSVKGRFTISRDNAKNTVYLQMNSLKPEDTAVYYCNTVRGGQSPHPVRYGYWGQGTQVTVSS", "polyreactivity (PSR sort gate)": "high polyreactivity"},
      {"sequence": "QVQLVESGGGLVQAGGSLRLSCAASGSIVRYNTMGWYRQAPGKERELVASIRIGGSTYYADSVKGRFTISRDNAKNTVYLQMNSLKAEDTAVYYCAVRPYRSAGGSVTRGAYYYWGQGTQVTVSS", "polyreactivity (PSR sort gate)": "high polyreactivity"},
      {"sequence": "QVQLVESGGGLVQAGGSLRLSCAASGSIVYYAMGWYRQAPGKERELVAAINTSGGSTYYADSVKGRFTISRDNAKNTVYLQMNSLKPEDTAVYYCAAVYVGYITGFKRGYWGQGTQVTVSS", "polyreactivity (PSR sort gate)": "high polyreactivity"},
      {"sequence": "QVQLVESGGGLVQAGGSLRLSCAASGSIYDSYDMGWYRQAPGKERELVAAITSGGSTNYADSVKGRFTISRDNAKITVYLQMNSLKPEDTAVYYCAAYYWYPVYYGYDYWGQGTQVTVSS", "polyreactivity (PSR sort gate)": "low polyreactivity"},
      {"sequence": "QVQLVESGGGLVQAGGSLRLSCAASGSIYGDNAMGWYRQAPGKERELVAAINYNGGRTYYADSVKGRFTISRDTAKNTVYLQMNSLKPEDTAVYSCAKDNYQAPVQQYPFDYWGQGTQVTVSS", "polyreactivity (PSR sort gate)": "low polyreactivity"},
      {"sequence": "QVQLVESGGGLVQAGGSLRLSCAASGSIYGYAMGWYRQAPGKERELVAAISGRGGRTYYADSVKGRFTISRDNAKNTVYLQMNSLKPEDTAVYYCNVQWRYPYHYTVDYWGQGTQVTVSS", "polyreactivity (PSR sort gate)": "high polyreactivity"},
      {"sequence": "QVQLVESGGGLVQAGGSLRLSCAASGSIYGYYAMGWSRQAPGKERELVAAISWSDGSTYYADSVKGRFTISRDNAKNTVYLQMNSLKPEDTAVYYCAARFTPYITSDDGHYDYWGQGTQVTVSS", "polyreactivity (PSR sort gate)": "low polyreactivity"},
      {"sequence": "QVQLVESGGGLVQAGGSLRLSCAASGSIYHYYAMGWYRQAPGKERELVAAISWSGGRTNYADSVKGRFTISRDNAKNTVYLQMNSLKPEDTAVYYCAARARYPNWTYYYWGQGTQVTVSS", "polyreactivity (PSR sort gate)": "high polyreactivity"},
      {"sequence": "QVQLVESGGGLVQAGGSLRLSCAASGSIYPNYTMGWYRQAPGKERQLVAAITISGGTTYYSDSVKGRFTISRDNAKNTVYLQMISLKPEDTAVYYCADYHRDRNSGFDYWGQGTQVTVSS", "polyreactivity (PSR sort gate)": "high polyreactivity"},
      {"sequence": "QVQLVESGGGLVQAGGSLRLSCAASGSIYQNAMGWYRQAPGKQRELVAAITSSGGRTYADSVKGRFTISRDNAKNTVYLQMNSLIPEDTAVYYCAKDSTADELNGFDYWGQGTQVTVSS", "polyreactivity (PSR sort gate)": "low polyreactivity"},
      {"sequence": "QVQLVESGGGLVQAGGSLRLSCAASGSIYRRNAMGWYRKAPRKERELVAAISSNGGSTYYADSVKGRFTISRDNAMNTVYLQMNSLKPEDSAVYYCAASPSGWRYDYWGQGTQVTVSS", "polyreactivity (PSR sort gate)": "high polyreactivity"},
      {"sequence": "QVQLVESGGGLVQAGGSLRLSCAASGSIYRTNAMGWYRQAPGKERELVAAITGSGGSTYYADSVKGRFTISRDNAKNTVYLQMNSLKPEDTAVYYCAAEFGSFVSPYNYYYWGQGTQVTVSS", "polyreactivity (PSR sort gate)": "low polyreactivity"},
      {"sequence": "QVQLVESGGGLVQAGGSLRLSCAASGSIYRYAMGWYRQAPGKEREFVAAITGGSGSTYYADSVKGRFTISRDNAKNTVYLQMNSLKPEDTAVYYCAASIWRGLTPLLIGFDYWGQGTQVTVSS", "polyreactivity (PSR sort gate)": "high polyreactivity"},
      {"sequence": "QVQLVESGGGLVQAGGSLRLSCAASGSIYRYNDMGWYRQAPGKERELVATITSGTNTYYADSVKGRFTISRDNAKNTVYLQMNSLKPEDTAVYYCAKSYIAWDGRTFEEMYYWGQGTQVTVSS", "polyreactivity (PSR sort gate)": "low polyreactivity"},
      {"sequence": "QVQLVESGGGLVQAGGSLRLSCAASGSIYRYYDMGWYRQAPGKERELVAAITYSGGGTYYADSVKGRFTISRDNAKNTVYLQMNSLKPEDTAVYYCAAEPYYGWKRLDYWGQVTQVTVSS", "polyreactivity (PSR sort gate)": "low polyreactivity"},
      {"sequence": "QVQLVESGGGLVQAGGSLRLSCAASGSIYSHYAMGWYRQAPGKERELVAAITKSGSTTYYADSVKGRFTSSRDNAKNTVYLQMNSLKPEDTAVYDCWGQGTQVTVSS", "polyreactivity (PSR sort gate)": "low polyreactivity"},
      {"sequence": "QVQLVESGGGLVQAGGSLRLSCAASGSIYSNAMGWYRPAPGKERELVAAISGSGSTTYYADSVKGRFTISRDNAKNTVYLQMNSLKPEDTAVYYCARGVYGRGRTERYYWGQGTQVIVSS", "polyreactivity (PSR sort gate)": "high polyreactivity"},
      {"sequence": "QVQLVESGGGLVQAGGSLRLSCAASGSIYSTYAMGWYRQAPGKERELVAAITSDGTYADSVKGRFTISRDNARNTVYLQMNSLKPEDTAVYYCAAYYPYTRHGDYWGQGTQVTVSS", "polyreactivity (PSR sort gate)": "low polyreactivity"},
      {"sequence": "QVQLVESGGGLVQAGGSLRLSCAASGSIYTNAMGWYRQAPGKERELVAAISWSGGRTYYADSVKGRFTISRDNAKNTVYLQMNSLKPEDTAVYYCAADYYYSQVAYDYWGQGTQVTVSS", "polyreactivity (PSR sort gate)": "high polyreactivity"},
      {"sequence": "QVQLVESGGGLVQAGGSLRLSCAASGSIYVKGWYRQAPGKERELVAAISTNGGRTYYADSVKGRFTISRDNAKITVYLQLTSLKPEDTAVYYCAVRTTPKTRRFYYWGQGTQVTVSS", "polyreactivity (PSR sort gate)": "high polyreactivity"},
      {"sequence": "QVQLVESGGGLVQAGGSLRLSCAASGSIYVNAMGWYRQEPGKERELVAVISKSGGSTYYADSVKGRFTISRDNAKNTVYLQMNSLKPEDTAVYYCATRGVSPSRPGYYWGQGTKVTVSS", "polyreactivity (PSR sort gate)": "high polyreactivity"},
      {"sequence": "QVQLVESGGGLVQAGGSLRLSCAASGSIYWYAMGWYRQAPGKERELVAAISRRGGSTYYADSVKGRFTISRDNDKNTVYLQMNSLKPEDTAVYYCAVGIYGEYDYWGQGTQVTVSS", "polyreactivity (PSR sort gate)": "high polyreactivity"},
      {"sequence": "QVQLVESGGGLVQAGGSLRLSCAASGSIYYAMGWYRQAPGKEREFVAAINSGGSTYYADSVKGRFTISRDNAKNTVYLQMNSLKPEDTAVYYCAADVWTPYLMSLKYGYDYWGQGTQVTVSS", "polyreactivity (PSR sort gate)": "low polyreactivity"},
      {"sequence": "QVQLVESGGGLVQAGGSLRLSCAASGSIYYNAMGWYRQAPGKERELVAGITWSGGSTYYADSVKGRFTISRDNAKNTVYLQMNSLKPEDTAVYYCAADFVYLGTHYGAYDYWGQGTQVTVSS", "polyreactivity (PSR sort gate)": "low polyreactivity"},
      {"sequence": "QVQLVESGGGLVQAGGSLRLSCAASGSLFGDYVMGWSRQAPGKERELVAAINRGGSTYYADSVKGRFTISRDNAKNTVYLQMNSLKPEDTAVYYGAAGYPSWYYGYPYDSWGQGTQVTVSS", "polyreactivity (PSR sort gate)": "low polyreactivity"},
      {"sequence": "QVQLVESGGGLVQAGGSLRLSCAASGSLFKRNAMGWYRQAPGKERELVAAITSSGGRTYYADSVKGRFTISRDNAKNTVYLLMNSLKPEDTAVYYCNKVRAGRDERRAGDYWGQGTQVTVSS", "polyreactivity (PSR sort gate)": "high polyreactivity"},
      {"sequence": "QVQLVESGGGLVQAGGSLRLSCAASGSLFKYYAMGWYRQAPGKERELVAAITIGGNTNYADSVKGRFTISRDNAKNTVYLQMNSLKPEDTAVYYCATGGYYSAIVYGGYDYWGQGTQVTVSS", "polyreactivity (PSR sort gate)": "low polyreactivity"},
      {"sequence": "QVQLVESGGGLVQAGGSLRLSCAASGSLFRYYVMGWYRQAPGKERELVAAISSRGGSTYYADSVKGRFTISRDNAKNSVYLLMNSLKPEDTAFYYCAARFGGWDRGLDYWGQGTLVTVSS", "polyreactivity (PSR sort gate)": "high polyreactivity"},
      {"sequence": "QVQLVESGGGLVQAGGSLRLSCAASGSLFSWYTKGWYRQAPGKERELVAAISRSGGRTYYADSVKGRFTISRDNAKNTVYLQMNSLKPEDTAVYSCAARVYSYYGSRGQRYDYWGQGTQVTVSS", "polyreactivity (PSR sort gate)": "high polyreactivity"},
      {"sequence": "QVQLVESGGGLVQAGGSLRLSCAASGSLFYINAMGWYRQAPGKERELVAAITSDGSTYYADSVKGRFTISRDNAKNTVYLQMNSLKPEDTAVYYCAADLTSDQYLYYWYWFYSWGQGTQVTVSS", "polyreactivity (PSR sort gate)": "low polyreactivity"},
      {"sequence": "QVQLVESGGGLVQAGGSLRLSCAASGSMFYKNAMVWYRQAPGKEREMVAAINSVGSTDYADSVKGRFTISRDNAKNTVYLQMNSLTPEDTAVYYCAATNLFTIIDYDYWGQGTQVTVSS", "polyreactivity (PSR sort gate)": "low polyreactivity"},
      {"sequence": "QVQLVESGGGLVQAGGSLRLSCAASGSMFYYYAMGWYRQPPGKERELVAAISSGGVGSTTYADSVKGRFTISRDNAKNTVYLQMNSLKPEDTAVYYCNADRPGYFYFYFNYWGQGTQVTVSS", "polyreactivity (PSR sort gate)": "high polyreactivity"}
    ]}
  ]
}
